{"source": "the DeepSol protein solubility set", "data": [{"test": "soluble on expression in E. coli; label from the status in PepcDB or PDB records", "values": [{"sequence": "MNKANPKNIPPLAPKKVFIKTYGCQMNVYDSQRMTDSLSSKGYVATQTPNDADLILVNTCHIREKAAEKLYSDLGRLRVMRQERTPDKPLMVGVTGCVAQAEGSEILRRAPIVDLVIGPQMYHRLPDLLEQTKQGKKIVATEYAVEDKFAHLPPHNKRAVRKRGVSAFLTVQEGCDKFCTFCVVPYTRGAEISRSVEQITEEARQLIEAGVKEITLLGQNVNGWHGQNVNGKTWRLGDLLYHLAKLDGLKRLRYTTSHPRDMDDSLIAAHRDLDILMPYLHLPVQSGSDRILKAMNRQHKSIHYLQLIEKIRNARPDIAFSGDFIVGFPGETDEDFEETIKLIKQVEYSSAYSFKYSPRPGTVGATMKNHVEEAVKDARLQHLQVLLLEQQNAFLRSKIGQTTDVLIEKAGRHSGQMVGRSPWLLPVVVDTQASTGTVIPIHIKNTSSNSFVGEMTNM", "soluble on expression in E. coli": "not soluble"}, {"sequence": "GSHMLETEDVVRARDAHLRSILDTVPDATVVSATDGTIVSFNAAAVRQFGYAEEEVIGQNLRILMPEPYRHEHDGYLQRYMATGEKRIIGIDRVVSGQRKDGSTFPMKLAVGEMRSGGERFFTGFIRDLT", "soluble on expression in E. coli": "soluble"}, {"sequence": "MNYYGTSMWASDNNTASNSDSSLNLLGILLLASENNKLINNTVLTNLYGVNLMAESTGIGDKTGPSENILASNIISYNLGTGILFDESYGNLIYNNSFDNIWNVEDESLNTWNSSEIGNYWSDYEGEDADGDGVGDTPYLINSHTGSMDYLPVTRSSDFPELEHHHHHH", "soluble on expression in E. coli": "not soluble"}, {"sequence": "MGSSHHHHHHSSGRENLYFQGHMNRTLYTLLFHLGLPLVALRLWWRARQAPAYAKRIGERFSLSLPEVPPGGIWVHAVSVGESIAAAPMVRALLERHPQLPVTVTCMTPTGSERIRALFGEQVRHCYLPYDLPWAAARFLDRVRPRLAVIMETELWPNHIHACAVRGIPVALANARLSERSARGYARFAGLTRPMLAELSWIAVQTEAEAERFRRLGARPECVSVTGSIKFDLRIDPQLPLAAAALREEWDATARPLWIAASTHAGEDEIVLAAHRRLLETRPDALLILVPRHPERFAGVHELCRREGFATVRRSGGEPVARATQVLLGDTMGELLFLYALADIAFVGGSLVPNGGHNLLEPAALGKPVFAGPHLFNFLDIAAQLRDAGALLEVTDAGELCDGLARLWAQPEVATAMATAGEKVLRNNQGALERLLAGLARLLGRGG", "soluble on expression in E. coli": "soluble"}, {"sequence": "MSLAFDETRLPDDVERGAQGGPRFKTTVITLSSGFERRNSDWAQTRGEWDVGYGMQDATDLEDVIAFFYARNGRARGFRFKDWTDYVLSRQAIGTTDGSNATFQLFKRYTSGSTSFDRILSKIVTATTQVWVNNVEAPEGGASTSFAIDTTTGMITLGSSLAAQSGTTVEAACQFDVPVRFGSDALDITAEWADAVGAPNIPIVEIRVEGHHHHHH", "soluble on expression in E. coli": "soluble"}, {"sequence": "GAMGNERRILEQKKHYFWLLLQRTYTKTGKPKPSTWDLASKELGESLEYKALGDEDNIRRQIFEDFKPE", "soluble on expression in E. coli": "soluble"}, {"sequence": "MKKWKVRSALVALIVLLAGCSSNAQYNSSASGNVGTAWGGDVHSTVQGVSAERAWRDPAEMIVISYSTNVPSGYDRVYSIRINELEYAIRDGNFNSLPITRVYDSSNNEPRYIVHARVGMNYQLYVRNYSRNTNYEIVATVDGLDVLNGKQGSLNNNGYIVNAGDSLAIKGFRKDKHTEAAFQFANVADSYAANSAQGDVRNTGVIGFAAFELQGQAQNALPPCSGQAFPADNNGYAPPPCRK", "soluble on expression in E. coli": "not soluble"}, {"sequence": "AIAGNTTSERVSGERHGAKAARAEGGGHGPGKEHKIMVGSTDDPSVFSLPDSKLPGDKEFVPWQQDLDDSVKPAQQARPTVIRWSEGGKEVFISGSFNNWSTKIPLIKSHNDFVAILDLPEGEHQYKFFVDGQWVHDPSEPVVTSQLGTINNLIHVKKSDFEVFDALKLDSMESSETSCRDLSSSPPGPYGQEMYVFRSEERFKSPPILPPHLLQVILNKDTNISCDPALLPEPNHVMLNHLYALSIKDSVMVLSATHRYKKKYVTTLLYKPI", "soluble on expression in E. coli": "soluble"}, {"sequence": "MRIEVRLFALYREQAGTDRLALELPEGARVREAQKALEERFPRLRLEGGMAAVNQALAGAETPLKEGDEVAFLPPVSGGQDSYGLTQEPLDLEALVAWATAPEYGAVVSFLGTTRSPNRGEEVAFLEYEAYPEMAEKVMAEILAEMRARWPLGRIALWHRLGRVDPGEASIAIVVSARHRKEAFAACQYAIDRVKQILPVWKKEHRKDGSFWVEGFAPEDKRL", "soluble on expression in E. coli": "soluble"}, {"sequence": "MKHSLPDLPYDYGALEPHINAQIMQLHHSKVHAAYVNNLNVTEEKYQEALAKGDVTAQIALQPALKFNGGGHINHSIFWTNLSPNGGGEPKGELLEAIKRDFGSFDKFKEKLTAASVGVQGSGWGWLGFNKERGHLQIAACPNQDPLQGTTGLIPLLGIDVWEHAYYLQYKNVRPDYLKAIWNVINWENVTERYMACKK", "soluble on expression in E. coli": "soluble"}, {"sequence": "MAHHHHHHMNTFNYIRSPTGVHEVDGPPNDCVSTVRFSPSGCPYLLLGAASWDKTCRVWQVIHQPNAINIRSQPMTFAVSDAPILDMSFSADGRVFWGGCSKTATMWNLTTNQKIIVGSHDLPVSCIAHVSSNTGTEMLVTGSWDGRLRFWDLRQPMPIKEEILGEPVFGLDAQRSFPMAACVTGRKVHIFNLQTMMKTNELKPPPLLKFNLGCVACSPQKDGVVVGSSEGRLSFIPLQAEVGCTFKAHVLVEDNVLYMHQTNFCVISPRVPHMISGGGDGRIGCWDYKKRSIVGYGESETRLENRNKSISAGDISADGSLLAFARSYDWAMGKTGCIPNEPHSIHIRSAEWKSALS", "soluble on expression in E. coli": "not soluble"}, {"sequence": "MEKVGEDEEKTIEEANNSTEETKSDKEEERIKGTIADQVDPVDSTEEGSTGPSNSHTVVSKDHDFSESDMEDEEQVLEFFRRNHGFSPEVTKRNNFPYVNNSERMVLQFQEDTSAETEQTNEMFHSLNDSNEILEGTKSSSASDEDTEDSSSNSDLDSSLSRYYFDGSLPVSAHVEEFETHQDESLVPKDENQVCNPNWWGMI", "soluble on expression in E. coli": "not soluble"}, {"sequence": "MFVFMLLLLLPFTISKAKDFPANPIEKAGYKLDFSDEFNGPTLDREKWTDYYLPHWCKDPESAKANYRFENGSLVEYITEDQKPWCPEHDGTVRSSAIMSFDKSWIHNFSGTTDNHERNEWRGYTTKYGYFEIRAKLSNTGGGGHQAWWMVGMQDDTNDWFNSKQTGEIDILETFFSKKDTWRIAAYGWNDPNFQTSWTISEDKVPSGDPTSEYHIYAMEWTPTALKFYYDNELFKVIYGSPDYEMGTILNIYTDAGSGAHNDVWPKEWAIDYMRVWKPVDGYKESESLNNYLIRNRQTGKFLYIEENNDKVSYGDITLKNEKNAKWSKEYRDGYTLLKNNETGEYLNIENQTGYIEHGKVPKTWWSAQWSEVPVDGYTRFVNRWKPNMSIHTESYEGVLQYGNVPNTYWTSQWQLIPVE", "soluble on expression in E. coli": "soluble"}, {"sequence": "MYFPAAIDTSLAAEDLGIWAPIDHQRIISLLTIGLGVLYHREKAISLEPLPETMLDEGKASPVPDISLRDNSASQTPIIIEVCHTNGLKGDLRKVIQLIDDGDYGIQEGFIYDYRAGTWVLYRSGGDGLTQSTSFSDILQLDLNQFL", "soluble on expression in E. coli": "not soluble"}, {"sequence": "MGSDKIHHHHHHMRAFVFPGQGSQYSGMAKDFSVYESSKEIFERSKKVLGFDITEIMNGDEETLKLTENAQPSIYITSYIAFLELEKRGILPDVVAGHSLGEYTALAVAGVYDFETGLYLVRKRGEYMSKALEPGKGTMAAVIGLNIETIEEVVNSIEGVYIANYNSHDQVVISGLKESVEKAMEILKEKGARRVVELMVSSPFHTPFLEYAREKMKEEVEKVDFKKPRWPIVMNSTAKPTENPEEIKRNIIEQITGPVLWKQSVDTMKKMGVTEFVEVGPKTVLKNLCRRMGANAKHFTEILSE", "soluble on expression in E. coli": "not soluble"}, {"sequence": "MSSGKVIVYGGKGALGSAILEFFKKNGYTVLNIDLSANDQADSNILVDGNKNWTEQEQSILEQTASSLQGSQVDGVFCVAGGWAGGSASSKDFVKNADLMIKQSVWSSAIAAKLATTHLKPGGLLQLTGAAAAMGPTPSMIGYGMAKAAVHHLTSSLAAKDSGLPDNSAVLTIMPVTLDTPMNRKWMPNADHSSWTPLSFISEHLLKWTTETSSRPSSGALLKITTENGTSTITPQ", "soluble on expression in E. coli": "soluble"}, {"sequence": "MAHHHHHHMALTQSSGEPLRSMQGGVGGVSYADGAGQAPEHINRASATPVLTEEAVQSSIETFEDAACVREEAVRSYAEFHNNVESLHATMHTQLRPVWRTAMQLRPEILSDVRDEWCLRRRDNIPDGIPIPAAAAQHIALQETILSEVEDMLQVLRNTSVRFAAHFLSDEEKISMGANPAYLRAPDIDKEVVVSRSQSTSTSPQRALPASVMSVSSSAGAVASAPIKPSASSAATAAVHTPREGHSRHHQGSYVQHHHHHSDDEAGLVSSSSNRHVCSGKSSCGSRSAGEDPLLEELRKQYQLRIRELKAQSEAGASRRSEHGASQSAAAPPPRRGNRARVAASRSLSLPSWASSASASVLTSSSSTVSRR", "soluble on expression in E. coli": "soluble"}, {"sequence": "MGSDKIHHHHHHMDNLIIKPGYVTQFQCVGPECEDSCCYDWRISFDKKSYKNTIKHPLLATTAKSAFIETKKSTSDWADIRLNEQGACPFVNEHKLCDIHAKAGEQALSHTCKTYPRIHKVIGGNKYESLYLSCPEVTRLVLFNPNAFQFDSNISGIKQPSTPSPIWLEKTHEYSLDLLVNLGLDWEQVLLAIGLLIKVSDQVRQNILPIEELDKRLQQLKLYAQSGALAEQYKNLPYSPLPQMHAFIAVHNELCKTHSRGVRERFTSLNQAVAALCNEENNYQIDALNQAWAEHAVPALISHTDLFERYILYSIYHHHFPLIDSQQLSWEAFRLLVLDCFMIRSYLSAIAFKNKGLSESDIVMCFQLYQVVRQHKIEFTQSMSKTLEECGIDSVPAAICLLKTNI", "soluble on expression in E. coli": "not soluble"}, {"sequence": "SVTSSQVMLMPAHDSAKPTGFGIMVTSLDLLRDHQKVIHTLWFIDDVVARELGGFDGFCRRERVLLLFVDSTNTTLSFTRNDMTCVPRQGGADSDHWLFKRHLALLLPLSFAQVYEGFISFYEEEDKHISWDIKSCSSSSHQ", "soluble on expression in E. coli": "not soluble"}, {"sequence": "MGSDKIHHHHHHMPKLIIDADDFGLSKAINHGIIESYKTGITTSTLLMPNLETAEHAIALAKNHPDLFIGQHTNFLLGKPCANPAEIPSLVDENGEFHRSKYYRANPELKFQYEDVRTETIAQMERFKALTGHYPEHIDCHSIGDETVDQAFFDIAREFGIHTTLKYSGDKKWSDQEGYLPITKLLESGALPYTNGGVSVENFLNDDFGLLKLAPNEIAEMHFDVGFLDQFVLDNSSYTLMRCRELATICDVRVRDWLLENGFELITFGDLQR", "soluble on expression in E. coli": "not soluble"}, {"sequence": "ENGRLVELPDNDKSDALQFLATILEAVPSIPAGSNIVEIVLEHEKNSNTSLGFGWACPHARVNFDGDLCCAIGWSPAGIDYGIAGEPLVRLVVMFFVPENQRNTYLKEVSTLARVLKSNPEFQNLEPIGDLDQVRNTLLDMTHQAMSE", "soluble on expression in E. coli": "not soluble"}, {"sequence": "SLGALGVIAFRRGYYYYVGSANSGVHRVKRHFSIKKKKRWHIDYISAKMEVVGAILSKEPECGLAQRFESFERIRGFGCSDCDCESHLFYSPTLNLEFLST", "soluble on expression in E. coli": "soluble"}, {"sequence": "MFFSNSLHANAAPQHFERIAKILQAKRRAGDFSTCDVKIQLKTGFDMVHSVVICAHSDVFSETFDNQRAPYQPFNMTDFDPDSVRRVFDWMYSGEIDIPETTIADVLAVASYLRVTMLQRQIEQKILNHNGSPIMALNIASARAFSVMDHTMNDLVHGFTEKMTGLGIDEVAKLTANSMIAVMAAVLPMKKKVPLVNMFISWIVCKQPERETINTIIQSLVISDITYDTLYAIRYSLKQYLTNSEIASKSQLTISPSGTIEIKIVPKKESMVSEKSSSLHSVVELPPNQYYRTRSEISAIDKMPDPFVRNLPRTQSASSMIARPRSSGGFPQYFTRSEVEDLQQMTDPFSKSERGMTPTRGPPMGFSSVQCTVKYPGWSKDVMETNKEMYKQCKMNGRYILSEAQTESNAPVFLRPAVGGKVSSSRGALSNLSNSEQNKKYGRGVTQSFSGHSLNDNDPMPKEHDPKVQPSVIISCLSLPTTSPVSVVKPKMTGVKKTDSEIMEINALPSSFNSNSFYTAKTSNTSGHSNDQSAGKSEKSQRSQKSEKSQKLKKPIPQSQYLYPN", "soluble on expression in E. coli": "not soluble"}]}]}
